Source: the RNAGym collection of RNA variant scans (doi:10.1021/acssynbio.7b00057)

B1: Pistol ribozyme (parent)
chain: GGGUCGUUGUUCCAUAAUCGCGUGGAUAUGGCACGCAAGUUUCUACCGGGCACCGUAAAUGUCCGACUGGAGCCGUUCGGGCGGCUAUAAACAGACCUCAGGCCCGAAGCGUGGCGGCACCUGCCGCCGGUGGUAAAAAAGAUCGGAAGAGCACACGUCU

Variants of: B1
Test: aptazyme ON/OFF ratio, guanine; higher = stronger switching; co-transcriptional cleavage with and without guanine

Variant	aptazyme ON/OFF ratio
U7A U8A G9C U10G U11C C13U	1.04
U7G U8G G9U U11A C12G	1.29
U8C U10G U11C C13U	1.04
U7A U8A U10G U11G	1.38
U7C G9U U10A U11G C12G	1.19
U7A G9C U10G U11G C12A C13G	1.06
U7G G9U U10A C12U C13G	1.14
U7G U8C U11C C12U C13U	1.45
U7C U8A G9U U11C C12U C13G	1
U7A U8A G9A U10A U11G C12A	1.04
U8A G9U U10G U11A C12G C13G	1.31
G9C U10C U11G C12U	1.07
U8C G9U U10C U11G C12A C13G	1.17
U7A G9A U10C C12U C13U	1.2
U7C G9A U10A U11C C12A C13A	1.1
U7A U8A G9C U10C C12A	1.03
U8G G9U U10G C12U C13U	1.06
U8C G9U U10A C12U C13U	1.09
U7G U8A U10C U11G C12G	1.49
U7G U8A G9A U10C U11G C12U C13A	1.1
U7A U8A G9A U10A U11G C13U	1.16
U7A U10A U11G C12G C13A	1.06
U8G U10A U11G C12G C13G	1.14
U7C U8G G9C U10C C12A C13G	1.1

Variant	aptazyme ON/OFF ratio
U7C U8G U10G U11A C12U C13A	1.23
U7G U8G G9A U10G U11C C13U	1.08
U7C U8G G9U U10A U11A C12A C13G	1.14
U7G U8G G9U U10G U11G	1.81
U7A G9C U11A C12A C13A	1.03
U8G U10A C12A C13G	1.05
U7C U8A U10G U11C C12U	1.09
U8G G9U U10A C12G	1.15
U8A G9U U10C U11G C12U C13A	1.11
U7C G9U U10A	1.32
U7A U8C G9U U10C U11C C12G C13U	1.04
U8A G9C U10C C12U C13U	1.03
U8A G9A U10G U11C C12A C13U	1.16
U7A U8G G9A U11C C12G C13U	1.14
U7A U8G U10C C12U C13G	1.4
U7A G9A C13A	1.24
U7A U8G G9U U11A C12G	1.38
U8A G9A U10C U11G C12A C13G	1.23
U8G G9C U11C C12A C13A	1.04
U7G U8C U10A U11C C12U C13U	1.07
U7A U8G G9A U11C C13G	1.09
U7C U8G G9A C12G C13A	1.15
U7C U8G G9U U10C U11A C12A C13U	1.24
U7A G9U U10C U11G C13G	1.09

Variant	aptazyme ON/OFF ratio
U7A U8A U10A U11A C12U C13G	1.24
U7C U8C G9C U10G C12A	1.1
U10A C12G C13U	1.47
U7G U10G U11G	1.53
U7C U8C G9U U10G U11C C13A	1.29
U7C U8A U10A U11A C12A C13A	1.25
U8G G9C U10C U11A	1.07
U7C G9A C12G	1.14
U7G U8C U10G U11C C12A	1.57
U7G U8C G9A U11G C12A	1.1
U8A U10G U11C C12A C13G	1.14
U7G U8C G9A U10G U11G C12A	1.3
U7G U8C G9C U10A U11G C13A	1.14
U8C G9U C13U	1.27
U7G U8C G9C U10A C12G C13A	1.06
U8A G9U U10C	1.88
U8G G9C U10G U11C	1.03
U7C U8A G9A U10C U11C C13U	0.994
U7A U8C U11C C12G	1.63
U8A G9C U10C C13U	1.06
U7G G9A U10C U11A C12U C13A	1.11
U7A U8G U10G U11A C13U	1.3
U7C U10G C13G	1.16
U8A G9A U11G C12A C13G	1.21

Variant	aptazyme ON/OFF ratio
G9C U11C C12A	1.25
U7C U8C G9A U10A U11A C12G C13A	1.21
U8A G9A U11G C12U C13A	1.23
U7G U8G G9C U10G U11G C12U	1.19
U7A U8C G9C U10A U11C	1.08
U7A U8G G9U U10A U11A C12A C13G	1.25
U8C G9A U11C C12A C13U	1.17
U7A U8C G9U U10A U11C C12G C13G	1.08
U7C U8G G9A U10C C12G C13G	1.12
U7A U8C G9A U10C U11A C13A	1.18
U7A U8C C12U C13U	1.27
U7G U8C G9U U10A C12A C13G	1.17
U8C G9U U10G U11C C12U C13A	1.19
U7A U8A G9U U10A U11G C12G	1.19
G9C U10G U11G C12G	1.16
U7G G9U U10G U11G C12U	1.29
U7C U10A U11G C12U C13U	1.5
U7C U8C G9C U10A U11G	1.32
U7C U8C G9A U11G C13U	1.27
U8C G9C U10C U11C C12U	0.966
U7C U8A U10A U11A C13G	1.19
U7C U8A G9A U10C U11A C12U	1.28
U7C U8C G9C U11A C12U C13U	1.11
U7G G9C U10A U11A C12G C13G	1.15

Variant	aptazyme ON/OFF ratio
U8A G9U U10A C12G	1.31
U7A U8C G9A U10G C12G C13G	1.2
U7G U8G G9C U10C U11A C13G	1.17
U7G U8C G9C C12A	1.12
U8C G9C U10C U11C C12G C13U	1.06
U7A G9A U10G U11A C12A	1.17
U7A U8C G9U U10A U11A C12A C13A	1.17
U7C U8A G9C U10C U11A C12G C13G	1.1
U7A U8G G9A U10A U11C C12U C13A	1.15
U7G G9U U10C U11G C12U	1.49
U7A U8G G9C U10C C12G C13U	1.46
U8G G9C U10A C12G C13G	1.16
U7A U8G U10A C12U C13U	1.42
U7G U8C G9C U10C C12U C13G	1.13
U7G U8A G9U U10G U11C C12U C13U	1.08
U7G G9U U10G U11A C12A	1.15
U7C U8A G9C U10C C13G	1.05
U8A G9A U11C C12U C13G	1.2
U7G U8G G9U U10A U11C C12U C13G	1.08
U7G U8A U11G C12A	1.45
U10C U11C C12U C13U	1.02
U7C U8A G9U U10G C12G C13A	1.12
U8C G9C U10A U11C C12U C13U	1.19
U7A U8A G9C U10G U11G C12G C13A	1.2

Variant	aptazyme ON/OFF ratio
U7G U8G G9A U10G U11C C13A	1.15
U7C G9U U11G C12G C13U	1.1
U7G U8A G9C U10G U11A C12G C13G	1.04
U7G U8G G9U U11G C12U C13U	1.27
U7C U8A G9U U10C U11C C12A C13U	1.12
U7A G9A U10G U11G C12U	1.47
G9A U10C U11C C12U	1.06
U8C U10G U11A C13A	1.26
U10C U11A C12G C13A	1.29
U7C U8G U10G C12U C13A	1.27
U7C U8G U10G U11A C12A	1.21
U8A G9A U10C U11G C12U C13U	1.22
U7A U8C G9C U10G C12G C13G	1.11
U7A G9C U10C C12U C13G	1.01
U8C G9C U10A C12G C13U	1.2
U7A U10G U11A C12G C13G	1.17
U7C U8C G9C U10C C13A	1.04
U8A G9C U10C U11C C12G C13G	1.05
U7G U8C G9C U10G U11A C12G	1.17
U7C U8C G9C U10A C12G	1.16
U7A U8C G9U U10G U11A C13U	1.06
U7G U8C G9U U10A C13A	1.35
U7G U8A G9C U10G U11C C13U	1.02
U7G G9C U11G C13A	1.29

Variant	aptazyme ON/OFF ratio
U8G G9A U10C U11A C12U	1.1
U7A G9C U11C C12G	1.06
U7A U8G G9U U10A U11A C13U	1.39
U7G U8C G9U U10C U11A C13G	1.06
U7A U8G G9C U10G C12A C13A	1.31
U8A G9A U10C U11A C12U C13G	1.21
U7C U8A G9U U10A U11G	1.36
U7A U8A U10C U11A C12G	1.19
U7A U10A U11G	1.35
U7G U10A U11C C12U C13U	1.08
U7A U8A G9U U10A U11C C12A C13G	1.08
U7C U8G G9A U10C U11G C12U C13G	1.14
U7G U11C C12G	1.26
U7G U8G U11G C12A	1.42
U7A G9A U10G U11C C12U C13G	1.18
G9U U10A U11C C12A	1.72
U7C U8C G9A U10A U11G C12U C13U	1.16
U7C U8G G9C U10C C12G	1.08
U7C U8G G9A U10G U11C C12U C13A	1.34
U7A U8G G9U U10G U11A C12U	1.27
U7G U8C G9U U10A C12U C13A	1.21
U8G G9U U10A U11G C12A C13U	1.12
U7G U8A U10G U11A C13A	1.18
